{"source": "paper PMC5983026", "about": "“Intraring allostery controls the function and assembly of a hetero-oligomeric class II chaperonin” (The FASEB Journal, 2018)", "key": {"[1]": {"substrate": "Nc1ncnc2c1ncn2[C@@H]1O[C@H](COP(=O)(O)OP(=O)(O)OP(=O)(O)O)[C@@H](O)[C@H]1O", "test": "steady-state ATPase, malachite green phosphate release", "assay_type": "biochemical, Thermoplasma acidophilum", "settings": "55 °C, pH 7.5, 25 mM Tris-HCl, 50 mM KCl, 20 mM MgCl2, 50 mM NaCl", "source_text": "steady-state ATPase, malachite green phosphate release on Ta thermosome α8β8"}, "[2]": {"molecular_target": "the molecule itself", "test": "SEC + native gel or EMSA; α (intraloop His6) and β co-expressed in E. coli; complexes purified to homogeneity as in ref. 29; integrity by Superose 6 Increase SEC (main peak ≅950 kDa) and native-PAGE 3–12% (≅1 MDa); subunit composition by Tris-Acetate SDS-PAGE (7%) of the purified proteins"}, "[3]": {"molecular_target": "the molecule itself", "test": "SEC + native gel or EMSA; α subunit expressed in E. coli in the absence of the β; purified α16 complex; integrity by SEC and native PAGE"}, "[4]": {"substrate": "Nc1ncnc2c1ncn2[C@@H]1O[C@H](COP(=O)(O)OP(=O)(O)OP(=O)(O)O)[C@@H](O)[C@H]1O", "test": "steady-state ATPase, malachite green phosphate release", "assay_type": "biochemical, Thermoplasma acidophilum", "settings": "single transition, 55 °C, pH 7.5, 25 mM Tris-HCl, 50 mM KCl, 20 mM MgCl2, 50 mM NaCl", "source_text": "steady-state ATPase, malachite green phosphate release on WTα16 (α-only thermosome)"}, "[5]": {"settings": "single transition, hydrolysis assigned to the WT beta subunits"}, "[6]": {"settings": "single transition, hydrolysis on the WT alpha subunits only"}}}
{"protein": "Ta thermosome α8β8 (Thermoplasma acidophilum DSM 1728; P48424:D94A) (protein, recombinant co-expression in E. coli BL21(DE3) Codon Plus-RIL, construct aK144HTTherm, intraloop His6-tag in each alpha subunit (kept), hexadecamer isolated on Superose 6, about 1 MDa) chain 1: MMTGQVPILVLKEGTQREQGKNAQRNNIEAAKAIADAVRTTLGPKGMDKMLVDSIGDIIISNDGATILKEMDVEHPTAKMIVEVSKAQDTAVGAGTTTAVVLSGELLKQAETLLDQGVHPTVISNGYRLAVNEARKIIDEIAEKSTDDATLRKIALTALSGKNTGLSNDFLADLVVKAVNAVAEVRDGKTIVDTANIKVDKKNGGSVNDTQFISGIVIDKEKVHSKMPDVVKNAKIALIDSALEIKKTEIEAKVQISDPSKIQDFLNQETNTFKQMVEKIKKSGANVVLCQKGIDDVAQHYLAKEGIYAVRRVKKSDMEKLAKATGAKIVTDLDDLTPSVLGEAETVEERKIGDDRMTFVMGCKNPKAVSILIRGGTDHVVSEVERALNDAIRVVAITKEDGKFLWGGGAVEAELAMRLAKYANSVGGREQLAIEAFAKALEIIPRTLAENAGIDPINTLIKLKAEHEKGRISVGVDLDNNGVGDMKAKGVVDPLRVKTHALESAVEVATMILRIDDVIASKKSTPPSGQGGQGQGMPGGGMPEY chain 2: MIAGQPIFILKEGTKRESGKDAMKENIEAAIAISNSVRSSLGPRGMDKMLVDSLGDIVITNDGVTILKEMDVEHPAAKMMVEVSKTQDSFVGDGTTTAVIIAGGLLQQAQGLINQNVHPTVISEGYRMASEEAKRVIDEISTKIGADEKALLLKMAQTSLNSKSASVAKDKLAEISYEAVKSVAELRDGKYYVDFDNIQVVKKQGGAIDDTQLINGIIVDKEKVHPGMPDVVKDAKIALLDAPLEIKKPEFDTNLRIEDPSMIQKFLAQEENMLREMVDKIKSVGANVVITQKGIDDMAQHYLSRAGIYAVRRVKKSDMDKLAKATGASIVSTIDEISSSDLGTAERVEQVKVGEDYMTFVTGCKNPKAVSILVRGETEHVVDEMERSITDSLHVVASALEDGAYAAGGGATAAEIAFRLRSYAQKIGGRQQLAIEKFADAIEEIPRALAENAGLDPIDILLKLRAEHAKGNKTYGINVFTGEIEDMVKNGVIEPIRVGKQAIESATEAAIMILRIDDVIATKSSSSSSNPPKSGSSSESSED", "values": [{"measurement": "Km", "setting": "[1]; [5]", "result": "82 ± 8.7", "unit": "µM"}, {"measurement": "kcat", "setting": "[1]; [5]", "result": "2.4 ± 0.09 mol ATP/(mol active sites × min)"}]}
{"protein": "Thermoplasma acidophilum thermosome α subunit D94K, with intraloop His6-tag (natural protein, Thermoplasma acidophilum thermosome α subunit, NCBI CAC12109; site-directed mutant of construct aK144HTTherm; also called D94Kα; not shown: His6, internal (intraloop), kept) MMTGQVPILVLKEGTQREQGKNAQRNNIEAAKAIADAVRTTLGPKGMDKMLVDSIGDIIISNDGATILKEMDVEHPTAKMIVEVSKAQDTAVGKGTTTAVVLSGELLKQAETLLDQGVHPTVISNGYRLAVNEARKIIDEIAEKSTDDATLRKIALTALSGKNTGLSNDFLADLVVKAVNAVAEVRDGKTIVDTANIKVDKKNGGSVNDTQFISGIVIDKEKVHSKMPDVVKNAKIALIDSALEIKKTEIEAKVQISDPSKIQDFLNQETNTFKQMVEKIKKSGANVVLCQKGIDDVAQHYLAKEGIYAVRRVKKSDMEKLAKATGAKIVTDLDDLTPSVLGEAETVEERKIGDDRMTFVMGCKNPKAVSILIRGGTDHVVSEVERALNDAIRVVAITKEDGKFLWGGGAVEAELAMRLAKYANSVGGREQLAIEAFAKALEIIPRTLAENAGIDPINTLIKLKAEHEKGRISVGVDLDNNGVGDMKAKGVVDPLRVKTHALESAVEVATMILRIDDVIASKKSTPPSGQGGQGQGMPGGGMPEY", "values": [{"measurement": "stoichiometry N", "setting": "[2]", "result": 16}]}
{"protein": "Ta thermosome α8β8 (Thermoplasma acidophilum DSM 1728) (protein, recombinant co-expression in E. coli BL21(DE3) Codon Plus-RIL, construct aK144HTTherm, intraloop His6-tag in each alpha subunit (kept), hexadecamer isolated on Superose 6, about 1 MDa) chain 1: MMTGQVPILVLKEGTQREQGKNAQRNNIEAAKAIADAVRTTLGPKGMDKMLVDSIGDIIISNDGATILKEMDVEHPTAKMIVEVSKAQDTAVGDGTTTAVVLSGELLKQAETLLDQGVHPTVISNGYRLAVNEARKIIDEIAEKSTDDATLRKIALTALSGKNTGLSNDFLADLVVKAVNAVAEVRDGKTIVDTANIKVDKKNGGSVNDTQFISGIVIDKEKVHSKMPDVVKNAKIALIDSALEIKKTEIEAKVQISDPSKIQDFLNQETNTFKQMVEKIKKSGANVVLCQKGIDDVAQHYLAKEGIYAVRRVKKSDMEKLAKATGAKIVTDLDDLTPSVLGEAETVEERKIGDDRMTFVMGCKNPKAVSILIRGGTDHVVSEVERALNDAIRVVAITKEDGKFLWGGGAVEAELAMRLAKYANSVGGREQLAIEAFAKALEIIPRTLAENAGIDPINTLIKLKAEHEKGRISVGVDLDNNGVGDMKAKGVVDPLRVKTHALESAVEVATMILRIDDVIASKKSTPPSGQGGQGQGMPGGGMPEY chain 2: MIAGQPIFILKEGTKRESGKDAMKENIEAAIAISNSVRSSLGPRGMDKMLVDSLGDIVITNDGVTILKEMDVEHPAAKMMVEVSKTQDSFVGDGTTTAVIIAGGLLQQAQGLINQNVHPTVISEGYRMASEEAKRVIDEISTKIGADEKALLLKMAQTSLNSKSASVAKDKLAEISYEAVKSVAELRDGKYYVDFDNIQVVKKQGGAIDDTQLINGIIVDKEKVHPGMPDVVKDAKIALLDAPLEIKKPEFDTNLRIEDPSMIQKFLAQEENMLREMVDKIKSVGANVVITQKGIDDMAQHYLSRAGIYAVRRVKKSDMDKLAKATGASIVSTIDEISSSDLGTAERVEQVKVGEDYMTFVTGCKNPKAVSILVRGETEHVVDEMERSITDSLHVVASALEDGAYAAGGGATAAEIAFRLRSYAQKIGGRQQLAIEKFADAIEEIPRALAENAGLDPIDILLKLRAEHAKGNKTYGINVFTGEIEDMVKNGVIEPIRVGKQAIESATEAAIMILRIDDVIATKSSSSSSNPPKSGSSSESSED", "values": [{"measurement": "Km", "setting": "[1]; biphasic, tight site", "result": "15 ± 1.65", "unit": "µM"}, {"measurement": "kcat", "setting": "[1]; biphasic, tight site", "result": "2.15 ± 0.12 mol ATP/(mol active sites × min)"}]}
{"protein": "Ta thermosome α8β8 (Thermoplasma acidophilum DSM 1728; P48425:D93K) (protein, recombinant co-expression in E. coli BL21(DE3) Codon Plus-RIL, construct aK144HTTherm, intraloop His6-tag in each alpha subunit (kept), hexadecamer isolated on Superose 6, about 1 MDa) chain 1: MMTGQVPILVLKEGTQREQGKNAQRNNIEAAKAIADAVRTTLGPKGMDKMLVDSIGDIIISNDGATILKEMDVEHPTAKMIVEVSKAQDTAVGDGTTTAVVLSGELLKQAETLLDQGVHPTVISNGYRLAVNEARKIIDEIAEKSTDDATLRKIALTALSGKNTGLSNDFLADLVVKAVNAVAEVRDGKTIVDTANIKVDKKNGGSVNDTQFISGIVIDKEKVHSKMPDVVKNAKIALIDSALEIKKTEIEAKVQISDPSKIQDFLNQETNTFKQMVEKIKKSGANVVLCQKGIDDVAQHYLAKEGIYAVRRVKKSDMEKLAKATGAKIVTDLDDLTPSVLGEAETVEERKIGDDRMTFVMGCKNPKAVSILIRGGTDHVVSEVERALNDAIRVVAITKEDGKFLWGGGAVEAELAMRLAKYANSVGGREQLAIEAFAKALEIIPRTLAENAGIDPINTLIKLKAEHEKGRISVGVDLDNNGVGDMKAKGVVDPLRVKTHALESAVEVATMILRIDDVIASKKSTPPSGQGGQGQGMPGGGMPEY chain 2: MIAGQPIFILKEGTKRESGKDAMKENIEAAIAISNSVRSSLGPRGMDKMLVDSLGDIVITNDGVTILKEMDVEHPAAKMMVEVSKTQDSFVGKGTTTAVIIAGGLLQQAQGLINQNVHPTVISEGYRMASEEAKRVIDEISTKIGADEKALLLKMAQTSLNSKSASVAKDKLAEISYEAVKSVAELRDGKYYVDFDNIQVVKKQGGAIDDTQLINGIIVDKEKVHPGMPDVVKDAKIALLDAPLEIKKPEFDTNLRIEDPSMIQKFLAQEENMLREMVDKIKSVGANVVITQKGIDDMAQHYLSRAGIYAVRRVKKSDMDKLAKATGASIVSTIDEISSSDLGTAERVEQVKVGEDYMTFVTGCKNPKAVSILVRGETEHVVDEMERSITDSLHVVASALEDGAYAAGGGATAAEIAFRLRSYAQKIGGRQQLAIEKFADAIEEIPRALAENAGLDPIDILLKLRAEHAKGNKTYGINVFTGEIEDMVKNGVIEPIRVGKQAIESATEAAIMILRIDDVIATKSSSSSSNPPKSGSSSESSED", "values": [{"measurement": "Km", "setting": "[1]; [6]", "result": "285 ± 35", "unit": "µM"}, {"measurement": "kcat", "setting": "[1]; [6]", "result": "1.7 ± 0.14 mol ATP/(mol active sites × min)"}]}
{"protein": "Thermoplasma acidophilum thermosome α subunit, wild type, with intraloop His6-tag (natural protein, Thermoplasma acidophilum thermosome α subunit, NCBI CAC12109; also called WTα; weak subunit; not shown: His6, internal (intraloop), kept) MMTGQVPILVLKEGTQREQGKNAQRNNIEAAKAIADAVRTTLGPKGMDKMLVDSIGDIIISNDGATILKEMDVEHPTAKMIVEVSKAQDTAVGDGTTTAVVLSGELLKQAETLLDQGVHPTVISNGYRLAVNEARKIIDEIAEKSTDDATLRKIALTALSGKNTGLSNDFLADLVVKAVNAVAEVRDGKTIVDTANIKVDKKNGGSVNDTQFISGIVIDKEKVHSKMPDVVKNAKIALIDSALEIKKTEIEAKVQISDPSKIQDFLNQETNTFKQMVEKIKKSGANVVLCQKGIDDVAQHYLAKEGIYAVRRVKKSDMEKLAKATGAKIVTDLDDLTPSVLGEAETVEERKIGDDRMTFVMGCKNPKAVSILIRGGTDHVVSEVERALNDAIRVVAITKEDGKFLWGGGAVEAELAMRLAKYANSVGGREQLAIEAFAKALEIIPRTLAENAGIDPINTLIKLKAEHEKGRISVGVDLDNNGVGDMKAKGVVDPLRVKTHALESAVEVATMILRIDDVIASKKSTPPSGQGGQGQGMPGGGMPEY", "values": [{"measurement": "stoichiometry N", "setting": "[2]", "result": 16}, {"measurement": "stoichiometry N", "setting": "[3]", "result": 16}, {"measurement": "Km", "setting": "[4]", "result": "140 ± 15.7", "unit": "µM"}, {"measurement": "kcat", "setting": "[4]", "result": "0.33 ± 0.015 mol ATP/(mol active sites × min)"}]}
{"protein": "Thermoplasma acidophilum thermosome α subunit T97V, with intraloop His6-tag (natural protein, Thermoplasma acidophilum thermosome α subunit, NCBI CAC12109; site-directed mutant of construct aK144HTTherm; also called T97Vα; not shown: His6, internal (intraloop), kept) MMTGQVPILVLKEGTQREQGKNAQRNNIEAAKAIADAVRTTLGPKGMDKMLVDSIGDIIISNDGATILKEMDVEHPTAKMIVEVSKAQDTAVGDGTVTAVVLSGELLKQAETLLDQGVHPTVISNGYRLAVNEARKIIDEIAEKSTDDATLRKIALTALSGKNTGLSNDFLADLVVKAVNAVAEVRDGKTIVDTANIKVDKKNGGSVNDTQFISGIVIDKEKVHSKMPDVVKNAKIALIDSALEIKKTEIEAKVQISDPSKIQDFLNQETNTFKQMVEKIKKSGANVVLCQKGIDDVAQHYLAKEGIYAVRRVKKSDMEKLAKATGAKIVTDLDDLTPSVLGEAETVEERKIGDDRMTFVMGCKNPKAVSILIRGGTDHVVSEVERALNDAIRVVAITKEDGKFLWGGGAVEAELAMRLAKYANSVGGREQLAIEAFAKALEIIPRTLAENAGIDPINTLIKLKAEHEKGRISVGVDLDNNGVGDMKAKGVVDPLRVKTHALESAVEVATMILRIDDVIASKKSTPPSGQGGQGQGMPGGGMPEY", "values": [{"measurement": "stoichiometry N", "setting": "[2]", "result": 16}]}
